Results from publication PMC2930322 (PLoS ONE, 2010).

Target: the molecule itself
Test: atomic force microscopy; assembled 1 h at 37°C in 25 mM Tris-HCl (pH 7.5) with NaCl (vimentin 0.1 mg/ml, 125 mM NaCl; K5/K14 0.1 mg/ml, 50-100 mM NaCl), adsorbed to mica, flushed with water, dried, imaged in air in acoustic mode

B1: Human K5/K14 heterodimers (complex)
chain 1: MSRQSSVSFRSGGSRSFSTASAITPSVSRTSFTSVSRSGGGGGGGFGRVSLAGACGVGGYGSRSLYNLGGSKRISISTSGGSFRNRFGAGAGGGYGFGGGAGSGFGFGGGAGGGFGLGGGAGFGGGFGGPGFPVCPPGGIQEVTVNQSLLTPLNLQIDPSIQRVRTEEREQIKTLNNKFASFIDKVRFLEQQNKVLDTKWTLLQEQGTKTVRQNLEPLFEQYINNLRRQLDSIVGERGRLDSELRNMQDLVEDFKNKYEDEINKRTTAENEFVMLKKDVDAAYMNKVELEAKVDALMDEINFMKMFFDAELSQMQTHVSDTSVVLSMDNNRNLDLDSIIAEVKAQYEEIANRSRTEAESWYQTKYEELQQTAGRHGDDLRNTKHEISEMNRMIQRLRAEIDNVKKQCANLQNAIADAEQRGELALKDARNKLAELEEALQKAKQDMARLLREYQELMNTKLALDVEIATYRKLLEGEECRLSGEGVGPVNISVVTSSVSSGYGSGSGYGGGLGGGLGGGLGGGLAGGSSGSYYSSSSGGVGLGGGLSVGGSGFSASSGRGLGVGFGSGGGSSSSVKFVSTTSSSRKSFKS
chain 2: MTTCSRQFTSSSSMKGSCGIGGGIGGGSSRISSVLAGGSCRAPSTYGGGLSVSSSRFSSGGACGLGGGYGGGFSSSSSSFGSGFGGGYGGGLGAGLGGGFGGGFAGGDGLLVGSEKVTMQNLNDRLASYLDKVRALEEANADLEVKIRDWYQRQRPAEIKDYSPYFKTIEDLRNKILTATVDNANVLLQIDNARLAADDFRTKYETELNLRMSVEADINGLRRVLDELTLARADLEMQIESLKEELAYLKKNHEEEMNALRGQVGGDVNVEMDAAPGVDLSRILNEMRDQYEKMAEKNRKDAEEWFFTKTEELNREVATNSELVQSGKSEISELRRTMQNLEIELQSQLSMKASLENSLEETKGRYCMQLAQIQEMIGSVEEQLAQLRCEMEQQNQEYKILLDVKTRLEQEIATYRRLLEGEDAHLSSSQFSSGSQSSRDVTSSSRQIRTKVMDVHDGKVVSTHEQVLRTKN
notes: keratin K5 (keratin, type II cytoskeletal 5), human; keratin K14 (keratin, type I cytoskeletal 14), human; Named only as a heterodimer; the two chains are never tested against each other or one by one; also called keratin K5/K14; K5/K14 subunits; source: expressed and purified as described [17]; stored in 6 M urea, dialysed into 2 mM Tris-HCl (pH 9), 1 mM DTT
Question: Does B1 bind?
Answer: binds
